The labels stand for the following.
B1: TpsB (natural protein, Aspergillus niger, UniProt Q00217 1-480, looked up)
chain: MAANGSSSEGDHRLLIVSNRLPITIRRSGGGKYEFSMSSGGLVTGLSGLSKTTTFQWYGWPGLEVPEDEIDSVKQRLQEEFNATPVFMDDKLADRHYNGFSNSILWPLLHYHPGEIVFDEAAWDAYREANRLFAKTIAHEAREGDLVWVHDYHLMLLPEVLREELAALGKNNIRIGFFLHTPFPSSEIYRILPVRSQLLRGVLQCDLIGFHTYDYARHFLSCCSHILGLVTTPSSVKFKDRSVAVGAFPIGIDPDKFTEGLKSPKVQNRIASLENKFQGTKLMVSVDRLDYIKGIPQKLHALEVFLSQHPEWVGKVVLVQVAVPSRQDVEEYQNLRAVVNELVGRINGKFGTVDYMPIHFMHKSVSFDELIALYAASDACVVSSTRDGMNLVSFEYVATQQKRKGVLILSEFAGAAQSLNGSIVVNPWNTEELASAYHEAVSMSDDLRAQKFEKLYKYISKYTSAFWGKSFVAELSKCST
notes: TpsB, putative trehalose-6-phosphate synthase of Aspergillus niger (Tps1 ortholog), gene tpsB, ANI_1_1078064; full-length cDNA / open reading frame; Cloned into both vectors; each fusion carries one of the two fragments (T25 or T18), not both; also called tpsB gene product; trehalose-6-phosphate synthase TpsB; source: bacterial two-hybrid fusion (pKT25 and pUT18C), in E. coli BTH101
B2: TpsA (natural protein, Aspergillus niger, UniProt Q00075 1-517, looked up)
chain: MPSLENPTFQNEARLLLVSNRLPITIKRSDDGRYDFSMSSGGLVSGLSGLSKSTTFQWYGWPGLEVPEEEIPVVKERLKQEYNAVPVFIDDELADRHYNGFSNSILWPLFHYHPGEITFDESAWEAYKEANRLFAKAVAKEVQDGDLIWVHDYHLMLLPEMLREEIGDSKENVKIGFFLHTPFPSSEIYRILPVRNELLLGVLHCDLIGFHTYDYTRHFLSACSRLLGLTTTPNGIEFQGKIIACGAFPIGIDPEKFEEGLKKEKVQKRIAMLEQKFQGVKLMVGVDRLDYIKGVPQKLHALEVFLSDHPEWVGKVVLVQVAVPSRQDVEEYQNLRAVVNELVGRINGKFGTVEFMPIHFLHKSVNFDELIALYAVSDACIVSSTRDGMNLVAYEYIATQKKRHGVLVLSEFAGAAQSLNGSIIINPWNTEELAGAYQEAVTMSDEQRALNFSKLDKYVNKYTSAFWGQSFVTELTRISEHSAEKFHAKKASFSDNNSENGEPSNGVETPAQEQVAQ
notes: TpsA, putative trehalose-6-phosphate synthase of Aspergillus niger (Tps1 ortholog), gene tpsA, ANI_1_1406074; full-length cDNA / open reading frame; Cloned into both vectors; each fusion carries one of the two fragments (T25 or T18), not both. cDNA from A. niger N402 background; also called tpsA gene product; trehalose-6-phosphate synthase TpsA; source: bacterial two-hybrid fusion (pKT25 and …)

Assay in all cases: two-hybrid; bacterial adenylate cyclase two-hybrid (BACTH System Kit); pKT25 and pUT18C fusions co-transformed into E. coli BTH101; LB with ampicillin, kanamycin and 0.5 mM IPTG, 100 rpm, 20°C, 72 h; β-galactosidase assay as units/mg dry weight; three to four independent assays
The target in one data set is TpsC (Aspergillus niger).
The data set “TpsB” deals with B1.
The next data set addresses TppA (Aspergillus niger).
In the data set “TpsA” the target is B2. The note with it: partners not purified.
Data set [1] concerns the molecule itself.

These results are taken from PMC3991884, “Trehalose synthesis in Aspergillus niger: characterization of six homologous genes, all with conserved orthologs in related species” (BMC Microbiology, 2014).

As for TpsC (natural protein), the figures for the β-galactosidase activity (two-hybrid) (units/mg dry weight bacteria) with TpsC (Aspergillus niger) and with TpsB were 1210 and 688, respectively.
In turn, TppA (natural protein) showed a β-galactosidase activity (two-hybrid) (units/mg dry weight bacteria) with TpsB of 691.
Regarding B1, the β-galactosidase activity (two-hybrid) (units/mg dry weight bacteria) with TppA (Aspergillus niger) is 581; in the data set with TpsC (Aspergillus niger), 441. In addition, the “β-galactosidase activity (two-hybrid)” value was 1590 units/mg dry weight bacteria with TpsA and 1780 units/mg dry weight bacteria in data set [1].
Regarding B2, the “β-galactosidase activity (two-hybrid)” value with TpsB (partners not purified) was 1750 units/mg dry weight bacteria; in data set [1], 418 units/mg dry weight bacteria.
